Results on 22 sequences are retold here after the DeepSol protein solubility set.

The data set can be described thus: soluble on expression in E. coli; label from the status in PepcDB or PDB records.
In the case of “MWFKNLTLYRFNKPFSIETEALETALADFTFSPCGSQDVSKFGFSNALGKKGSTLVHSANNRHLICVTKEEKILPAQVIKESLEEKVAQIEDEENRKLAKKEKDALKDEIITSLLPRAFSRRSQTRALILPELEMILVDSSSATKAEELLALLRKALGSLPVIPLSFKAPIESQLTEWLKNGSAPLPFEMQDEAELKSAADEGGIVRFKQQDLKEDEVLAHLETGKEVHKLALHFGQSIALLLQSDASVKRLKFSEEFRAGNDELGNEDPMARLDADFALMGSELVALMHALVSALGGIEETQA”, the “soluble on expression in E. coli” value was “soluble”.
“MWKWETENDAKGVVVIAHNILEHTGRYAYVITMLRRNGYHVIMGDLPGQGQTSRAQKGQIDDFNTYHENILEWIKIANEYKIPTFVLGVGLGGLIILNLLEKTELPIEGILLFSPMLELKRDYKGRKNKLISNVGKISKDTRFKVGITPQDLTRNDEIIEETANDGLMLKKVTYSWYNLINEKMKETMDHIRDIKPISALIMYGTNDKILETQSINEMKDKLKSKEMYFKVWDGLYHEIHNEPERDLVMRYVLSFLNNSVNTMGFIVNEEEIEDI”: the “soluble on expression in E. coli” value is reported as “not soluble”.
With “MWLRDPFPRLYPDGDFQMACDRFFGNPYDSDNWVNGGFTYVRSNNRSIEFYKFWHKSRLDYPDLHDQDVFNRIKHEPFISEIGIQMRFFDTVYFGGFCQTSRDINLVCTMHANCCIGLDKKLHDLNLVLDDWRKYLSLSEPVQNTTWSVPMKCLED”, the “soluble on expression in E. coli” value is on record as “not soluble”.
Then “MYDMINAKYLGKLIFLDFGQTITSLEETSDNSTFFIADEFGNFGSHYVGVVLEQVRSFNTVVILSYQSFANLRNIGGDNFKSQIINNTSTLIAHRLIDMMEAEEVANLYGVDITCASEIKSLKVGQALVRSISSYYGEIKDWLVQQIDKS”, with “soluble”; and “MYEAKDYKSDQYVRWCPGCGDHAVVVTLQKAMAEIGIPPHQTAVMSGIGCSSRLPYYMNTYGFHTIHGRGAAIATGVKTANPELSVWLASGDGDSLAIGGNHFIHAVRRNIDINAVLFNNRIYGLTKGQYSPTSARGFVSKSSPYGTVEDPFIPAELVLGARGNFFARAIDVDMKTLQECFVASARHRGFAVTEVLVNCVIFNDGTHKDRSHKDIRADRTITLRHGEKMIFGANRDKGIVLEGLKLRAVTIGEDGYTLDDVLVHDKYEQDVTLHHLLAMMGYTDDSMPIALGVIRDVEAPCYDRAVEAQIEEIQQKNPIRKLHDLLIQGDVWEIK”, with “not soluble”.
Then “MYELTEDFKLRKITKYELDGIDEREDLLVIPPSSKAGPCGNACLFCYLLQNPPEMIYKVPRHDTLNDPDLENRIRYARKHYDLWIRVTDTSGNIKFDENRIKSLYDAGLDEIQISVHTTKKDVRARLMRNRQAGKLIDLLPLVAKHFRTIADIILTPGFNVEDIGEIIEDLDSMGVHEVRLFPVGVTRYNKFGVRPLTREELSYVKGIALEKDKELAIKVVIPPIFLALLGEFTTGLEPFDIEPDFPTYIFTGELAYQEMKRLFPRVNVIMVKNEFFGGNIGSAGLLTGRDILREVEKLPEVDLGLIILPELMFYGDMTLDGWRRQELFSKILIEKGYIVETALEPTEIPRVIEKVTL”, with “not soluble”; and “MYELYTLLAEYYDTIYRRRIERVKAEIDFVEEIFKEDAKREVRRVLDLACGTGIPTLELAERGYEVVGLDLHEEMLRVARRKAKERNLKIEFLQGDVLEIAFKNEFDAVTMFFSTIMYFDEEDLRKLFSKVAEALKPGGVFITDFPCWFYGGRDGPVVWNEQKGEEKLVIMDWREVEPAVQKLRFKRLVQILRPNGEVKAFLVDDELNIYTPREVRLLAEKYFEKVKIYGNLKRELSPNDMRYWIVGIAKSF”, with “soluble”; and “MYFEGYGYRGSTFEQTYRCYPASFIDKPQLETGDKIIMPPSALDRLASLHIEYPMLFEVHNAAAERTSHCGVLEFIAEEGMIYMPYWMMQNLLLTEGDMVFIKNANLPKGTYVKLQPHTTDFLDISNPKAILEKTLRNYSCLTTGDSIMVAYNNKKYYIDIVETKPSNAISIIETDCEVDFAPPLDYKEPERQKAAVPPSTAPTAEEAAEEEPKFIPFTGPGRRLDGKAPKDKDVSASSPAKRQANATNSVQPSTASTSQSSSSRKTTEKLVFGPGGNRTSKETEKVPEKEPKEDPKKDEPKFSAFTGRKYSLKG”, with “soluble”.
With “MYGSEGGAMRIVAGVGENRNMERAASLADFEVDLVHSEEEFIEELRRGAAAYVRGSLPAANIMAELKKGGPLNRASWIEVGANGFLLAPVGIDEGRTVDDRFKIAVSASEFLRKTGEEPRVGVISGGRRGDLGRSPEVDRSIHEGEFLTSMIKDKYRVRHYHILIEEAVADGCNVIIAPDGITGNLIFRSLVLVGTARSYGAVALGFDGIFVDTSRSQTAEGYLRALKFAHWLARGWNEDNE”, the “soluble on expression in E. coli” value is “soluble”.
Then “MYGYYSIGELTKEFSITARTLRYYEEEGLLVPCRHGSARFYTQTDRHKLKQILRAKRVKFSLSEISEMLSMVGKPPTDEKKLKELIAGVNKKRADLQQMQRDIDDFLHDLERIEETLFESLAELGVNR”, with “not soluble”; and “MYHNSSQKRHWTFSSEEQLARLRADANRKFRCKAVANGKVLPNDPVFLEPHEEMTLCKYYEKRLLEFCSVFKPAMPRSVVGTACMYFKRFYLNNSVMEYHPRIIMLTCAFLACKVDEFNVSSPQFVGNLRESPLGQEKALEQILEYELLLIQQLNFHLIVHNPYRPFEGFLIDLKTRYPILENPEILRKTADDFLNRIALTDAYLLYTPSQIALTAILSSASRAGITMESYLSESLMLKENRTCLSQLLDIMKSMRNLVKKYEPPRSEEVAVLKQKLERCHSAELALNVITKKRKGYEDDDYVSKKSKHEEEEWTDDDLVESL”, with “not soluble”; and “MYIECEGILKRYFKDVPEIIKRACKFAREKLGEGSHGFSHTLRVLAIALHIGSKENADLEILALAALLHDIARPLEDKGVIRDHAIEGAKIAKEFLSNYEKVEEVAHAIASHRFSNDVEPRTLEAKILSDADKIDALGAIGIARVFIYSCEKERSIEDSIKHFEEKILKLKDLMYTKTGKEIAEKRHKVVKWYVETLKSELREFLYLEHHHHHH”, with “soluble”.
Turning to “MYKQIILACDGSEHALRAAEHATYIAKCSEETNVEVVYVVDNRTAKSDIIQGQTDLETISASRKDKLKEIEGLLKKENISYTITILHGDPGDTIVQYVNTGDIDLVIAGSRGLNTLQEMVLGSVSHKIAKRVKCPVMIVK”, the “soluble on expression in E. coli” value was “not soluble”.
As to “MYKTIIMPVDVFEMALSDKAVRHAEFLAQQDGVIHLLHVLPGSASFTMSRFTADLRRFEEHLQHEAETRLQTMVSHFSIDPSRIKLHVRFGSVRDMVNELASEINADVVVIGSRNPSISTHLLGSNASSVIRHAHIPVMVVR”, the “soluble on expression in E. coli” value was “not soluble”.
Under “MYLKARQDELTESTIQSQEYRLEAFEQFCREEGIENLNDLSGRDLYAYRVWRREGNGKGRDEIEPITLRGQLATVRSFLRFAAEVDAVPEDLRTKVPLPTILEHHHHHH” stands “not soluble”; under “MYLKETLDQFTSINNILKLLKKSPGFNKYCIQERLPKETVITSDKRRKYIYIIEDGFMKLVFEGTNKHNFSYILQKGAFPHLPVYTEDIPKHMMLIALTDVVWWKIEFQFFKEMMELEDPRNYIMLHQLAETRRRLYIIAVQEKLSSRESIYFSLNTMIDYGLRVSEKAVELPKFLTYQILADNSNTSKSYTSKVLSNLREKGILESQKKPWRINDVQKLQELIDAEALLAIL”, “not soluble”; under “MYRAIGMIELTSVARGIYATDQMLKIAYVDVVSATPVCPGKYIAIVQGDVAAVESSISTGIAISGEYLVDSFVLPNVHEGIFPAITATTMPDGTGALGIMESFSMASMITAADAALKAADVQALELRLGSGLGGKAYFTFTGDVAAVEAGIEAGKAIAMEKGLLVDIEVIPSPSDRLWTSLY”, “soluble”.
Under “MYRDRVRLPSLLDKVMSAAEAADLIQDGMTVGMSGFTRAGEAKAVPQALAMRAKERPLRISLMTGASLGNDLDKQLTEAGVLARRMPFQVDSTLRKAINAGEVMFIDQHLSETVEQLRNHQLKLPDIAVIEAAAITEQGHIVPTTSVGNSASFAIFAKQVIVEINLAHSTNLEGLHDIYIPTYRPTRTPIPLTRVDDRIGSTAIPIPPEKIVAIVINDQPDSPSTVLPPDGETQAIANHLIDFFKREVDAGRMSNSLGPLQAGIGSIANAVMCGLIESPFENLTMYSEVLQDSTFDLIDAGKLRFASGSSITLSPRRNADVFGNLERYKDKLVLRPQEISNHPEVVRRLGIIGINTALEFDIYGNVNSTHVGGTKMMNGIGGSGDFARNAHLAIFVTKSIAKGGNISSVVPMVSHVDHTEHDVDILVTEQGLADLRGLAPRERARVIIENCVHPSYQAPLLDYFEAACAKGGHTPHLLREALAWHLNLEERGHMLAG” stands “soluble”.
Under “MYRLQIEKIRGFRDFYPEDMDVEKFIFKTAEEAAEAFGFRRIDFPSLEYLDLYRIKSGEELLQQTYSFVDKGGREVTLIPEATPSTVRMVTSRKDLQRPLRWYSFPKVWRYEEPQAGRYREHYQFNADIFGSDSPEADAEVIALASSILDRLGLQDIYEIRINSRKIMEEIIGGMTSSDPFSVFSIIDRYHKISREEFVDQLRSAGIGEDGVSMIADLCSGTRGIDEMARITGKSSEEIARMAAVEDLLASYGVKNVRYDFSIVRGLSYYTGIVFEAYDRSGQFRAILGGGRYDNLASLMSGESVPAVGFGMGDAVISLLLKRENVQIPREKKSVYICRVGKINSSIMNEYSRKLRERGMNVTVEIMERGLSAQLKYASAIGADFAVIFGERDLERGVVTIRNMYTGSQENVGLDSVVEHLISQATLEHHHHHH” stands “soluble”; under “MYSKILGTGSYLPSQVRTNADLEKMVETSDEWIVARTGIRERRIAADNETVADMAFFAAQNAINMAGIDKHDIDMIIVATTSASHTFPSAACQVQGKLGIKGCPAFDLAAACSGFMYALSIADQHVKSGMCKHVLVIGADALSKTCDPTDRSTIILFGDGAGAVVVGASNEPGILSTHIHADGEFGDLLSLEVPVRGGDSDKWLHMAGNEVFKVAVTQLSKLVVDTLKANNMHKSELDWLVPHQANYRIISATAKKLSMSLDQVVITLDRHGNTSAATVPTALDEAVRDGRIQRGQMLLLEAFGGGFTWGSALVKF”, “not soluble”; under “MYSSNYIYQHDDLELHGFLAHEEGIKQSRPAVIVAHDWSGRGEFACLKAKQLAEMGYIGFALDMYGQGQIGSNNDEKMALMQPLYSDRSLLRGRLYAALEAIKSISVVDNNRIAIIGFCFGGLCALDLARSGADIRGAVSFHGLLNKPENLASGRIKAKILALHGYDDPMAKPEQVHAFCQEMTEANVDWQMHMYGQVKHAFTNPQAHDEHLGLIYDEVAARRSWQAMSQFLQEIFN”, “not soluble”.
Consider “MYTDSNNRNFDEVNHQHQQEQDFNGQSKYDYPQFNRPMGLRWRDDQRMMEYFMSNGPVETVPVMPILTEHPPASPFGRGPSTERPTTSSRYEYSSPSLEDIDLIDVLWRSDIAGEKGTRQVAPADQYECDLQTLTEKSTVAPLTAEENARYEDLSKGFYNGFFESFNNNQYQQKHQQQQREQIKTPTLEHPTQKAELEDDLFDEDLAQLFEDVSREEGQLNQLFDNKQQHPVINNVSLSEGIVYNQANLTEMQEMRDSCNQVSISTIPTTSTAQPETLFNVTDSQTVEQWLPTEVVPNDVFPTSNYAYIGMQNDSLQAVVSNGQIDYDHSYQSTGQTPLSPLIIGSSGRQQQTQTSPGSVTVTATATQSLFDPYHSQRHSFSDCTTDSSSTCSRLSSESPRYTSESSTGTHESRFYGKLAPSSGSRYQRSSSPRSSQSSIKIARVVPLASGQRKRGRQSKDEQLASDNELPVSAFQISEMSLSELQQVLKNESLSEYQRQLIRKIRRRGKNKVAARTCRQRRTDRHDKMSHYI”, for which the “soluble on expression in E. coli” value is reported as “not soluble”.
